# According to patent publication US9766250B2, “Method for detecting protein-protein interaction” (MEDICAL & BIOLOGICAL LABORATORIES CO., LTD., priority 2011, dated 2017):
# What was measured:
# [1] = molecular target: T1, interaction between BclX(L) and Bax (Homo sapiens, UniProt Q07817); assay: Time course of fluorescent foci after ABT-737 addition, BclX(L)/Bax (Example 24); format: cell-based; details: 293 cells co-expressing p62(PB1)-BclX(L) and AG-Bax; 15 μM
# T1 construct: region having the 1st to 209th amino acids of the BclX(L) protein; expressed in transfected cells; host or cells: 293 cells, transient
# Procedure: (§1) The plasmid DNAs were mixed in equal amounts in the following combinations, and the genes were introduced into 293 cells by the same method as that described in Example 2: • a combination of pp62(PB1)-BclX(L) with pBak-hAG; and • a combination of pp62(PB1)-BclX(L) with phAG-Bax.
# (§2) Then, to the 293 cells into these plasmid DNAs were introduced, ABT-737 (manufactured by Santa Cruz Biotechnology, Inc.) was added to the final concentration of 15 μM, and images were obtained by the same method as that described in Example 2 every 30 minutes for the cells co-expressing p62(PB1)-BclX(L) and Bak-AG, and every 5 minutes for the cells co-expressing p62(PB1)-BclX(L) and AG-Bax. On the basis of the obtained images, analysis was performed by the same method as that described in Example 11, and a graph was prepared by plotting a total fluorescence intensity of fluorescent foci (assemblies) against time. Note that, in the graph, the x axis represents time (minutes), provided that time when the drug was added is 0, and the y axis represents the total fluorescence intensity of fluorescent foci (assemblies).
# [2] = molecular target: T2, interaction between BclX(L) and Bak (Homo sapiens, UniProt Q07817); assay: Time course of fluorescent foci after ABT-737 addition, BclX(L)/Bak (Example 24); format: cell-based; details: 293 cells co-expressing p62(PB1)-BclX(L) and Bak-AG; 15 μM
# T2 construct: region having the 1st to 209th amino acids of the BclX(L) protein; expressed in transfected cells; host or cells: 293 cells, transient
# Procedure: as §1, §2
# [3] = system: interaction between an ERK substrate and Pin1(ww); assay: Time course of fluorescent foci after EGF and U0126, 293 cells (Example 27); format: cell-based
# Procedure: On the next day, EGF (manufactured by SIGMA CO.) was added to the cells to the final concentration of 50 ng/ml. Further, 14 minutes thereafter, U0126 was added to the cells to the final concentration of 10 μM. Meanwhile, the cell observation was started 2 minutes before the EGF addition, and the observed images were obtained every 15 seconds. The obtained images were used to analyze a total fluorescence luminance of fluorescent foci (assemblies) by the same method as that described in Example 11, and a graph was prepared by plotting the total fluorescence luminance against time.
# [4] = system: interaction between calmodulin and M13 peptide of myosin light chain kinase 2; details: 200 μM
# Procedure: pCalmodulin-hAG and pM13peptide-p62(PB1) were mixed in equal amounts and introduced into HeLaS3 cells by the same method as that described in Example 1. Then, 200 μM histamine (manufactured by Wako Pure Chemical Industries, Ltd.) was added thereto, and fluorescence images were captured over time.
# [5] = system: interaction between Rac1 and RhoGDI; assay: Fluorescent foci after mevastatin, Rac1/RhoGDI (Example 22); format: cell-based; details: cells co-expressing AG-Rac1 and RhoGDI-p62(PB1); 10 μM; 15 hours
# Procedure: (§3) Then, each of the following combinations of the plasmid DNAs was mixed in equal amounts and introduced into cells by the same method as in Example 2: • a combination of phAG-Rac1 with pp62(PB1)-PBD; and • a combination of phAG-Rac1 with pRhoGDI-p62(PB1). Then, after culturing for 6 hours after the transfection, an inhibitor mevastatin (Enzo Life Sciences, Inc.) against geranylgeranyl group modification was added to the final concentration of 10 μM, allowed for further culturing for 15 hours, and observed.
# [6] = system: interaction between Rac1 and PBD; assay: Localization of fluorescent foci after mevastatin, Rac1/PBD (Example 22); format: cell-based; details: cells co-expressing AG-Rac1 and p62(PB1)-PBD; 10 μM; 15 hours
# Procedure: as §3
# [7] = molecular target: T3, mTOR(FRB) and FKBP12 interaction (Homo sapiens, UniProt P42345+P62942); assay: Degree of fluorescent focus (assembly) formation after rapamycin with TFG(PB1) (Example 9, Table 2); format: cell-based; design: key: ++: fluorescent foci were observed in 50% or less of the HeLaS3 cells; +: fluorescent foci were observed in the 293T cells expressing a larger amount of proteins than that in the HeLaS3 cells; details: fluorescent protein fused to mTOR(FRB), KO1 and dAG (AB) in 293T cells
# T3 construct: region having the 2025th to 2114th amino acids of the mTOR protein; expressed in transfected cells; host or cells: HeLaS3; 293T for some combinations with FKBP12-Tankyrase(SAM)
# [8] = molecular target: T3, mTOR(FRB) and FKBP12 interaction; assay: Degree of fluorescent focus (assembly) formation after rapamycin, fluorescent proteins fused to mTOR(FRB) (Example 8, Table 1); format: cell-based; design: key to degree of fluorescent focus formation, Tankyrase (SAM): +++: fluorescent foci were observed in 50% or more of the HeLaS3 cells; ++: fluorescent foci were observed in 50% or less of the HeLaS3 cells; +: fluorescent foci were observed in 293T cells expressing a larger amount of proteins than that in the HeLaS3 cells; details: fluorescent protein fused to mTOR(FRB); for degree of fluorescent focus formation, DGKd (SAM): with FKBP12-DGKd(SAM); for degree of fluorescent focus formation, TEL (SAM): with FKBP12-TEL(SAM); for degree of fluorescent focus formation, Tankyrase (SAM): with FKBP12-Tankyrase(SAM), some combinations in 293T cells; for degree of fluorescent focus formation, P62 (PB1): with p62(PB1)-FKBP12
# Procedure: Note that plasmid DNAs encoding fusion proteins composed of mTOR(FRB) and the corresponding fluorescent proteins were prepared as appropriate by the same method as that described in Example 2. Moreover, regarding the combinations of FKBP12-Tankyrase(SAM) with mKO2, mKeima, mMiCy1, mKO1, MiCy1, and TGuv, the test was conducted by introducing the genes into 293T cells. Specifically, the 293T cells were cultured in DMEM High glucose (manufactured by SIGMA ALDRICH CO.) containing 10% FBS (manufactured by Equitech-Bio Inc.). Moreover, the 293T cells were seeded onto an 8-well chamber (manufactured by Nunc A/S) 6 hours before the plasmid DNAs were introduced. Further, at the time of the transfection, 200 ng of the plasmid DNA encoding FKBP12-Tankyrase(SAM) and 200 ng of one of the plasmid DNAs encoding fusion proteins composed of the fluorescent proteins and mTOR(FRB) were diluted with 30 μl of OptiMEM (manufactured by Life Technologies Corporation), and 1.2 μl of TurboFect Transfection Reagent (manufactured by Thermo Fisher Scientific Inc.) was added thereto and stirred. Then, the resultant was further mixed with 300 μl of the culture solution, subsequently added to the 293T cells, and observed 48 hours later.
# [9] = system: interaction between KRas and cRaf; assay: EGF-dependent fluorescent foci near the cell membrane, Cos-7 cells (Example 23); format: cell-based; details: Cos-7 cells co-expressing p62(PB1)-KRas(WT) and AG-cRaf(R59A); 50 ng/ml; 37° C. for 30 minutes
# Procedure: The cells were observed using a total internal reflection fluorescence microscopy system with arc lamp source (manufactured by Olympus Corporation, IX71-ARCEVA) capable of exciting only the vicinity of the cell membrane. Additionally, regarding the combination of pp62(PB1)-KRas (WT) with the phAG-cRaf (R59A), an image was obtained when no EGF was added. After that, EGF (manufactured by SIGMA CO.) was added to the cells to the final concentration of 50 ng/ml and left standing at 37° C. for 30 minutes. Then, the resultant was observed again.
# [10] = system: interaction between HRas and cRaf; assay: Time course of fluorescent foci after EGF, HRas/cRaf (Example 28); format: cell-based; details: cells with p62(PB1)-HRas(WT) and AG-cRaf(R59A); 50 ng/ml; vicinity of the cell membrane
# Procedure: EGF (manufactured by SIGMA CO.) was added thereto to the final concentration of 50 ng/ml. A measurement apparatus capable of detecting a fluorescent signal only in the vicinity of the cell membrane was used for the observation. Note that the observation was started 5 minutes before the EGF addition, and continued at 5-minute intervals for 30 minutes after the addition. The observation was made another 30 minutes thereafter. On the basis of the obtained image data, analysis was performed by the same method as that described in Example 11, and a graph was prepared by plotting a total fluorescence intensity of fluorescent foci (assemblies) against time. Note that, in the graph, the x axis represents time (minutes), provided that time when EGF was added is 0, and the y axis represents the total fluorescence intensity of fluorescent foci (assemblies).
# T3 sequence (P42345 2025-2114): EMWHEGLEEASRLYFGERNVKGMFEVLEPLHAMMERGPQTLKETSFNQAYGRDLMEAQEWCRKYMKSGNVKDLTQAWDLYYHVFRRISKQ
# T3 sequence (P62942 whole entry, the tested form may be a part): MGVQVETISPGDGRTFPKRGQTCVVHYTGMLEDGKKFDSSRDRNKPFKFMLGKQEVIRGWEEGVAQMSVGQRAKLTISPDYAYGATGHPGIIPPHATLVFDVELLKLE
# T1 sequence (Q07817 1-209): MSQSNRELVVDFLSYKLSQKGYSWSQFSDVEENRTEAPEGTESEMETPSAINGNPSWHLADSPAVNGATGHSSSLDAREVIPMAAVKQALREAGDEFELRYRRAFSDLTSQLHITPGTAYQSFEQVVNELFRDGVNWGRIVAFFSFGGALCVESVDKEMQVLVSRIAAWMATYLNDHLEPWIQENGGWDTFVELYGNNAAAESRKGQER
# T2 sequence (Q07817 1-209): as above
Compound,"degree of fluorescent focus formation, DGKd (SAM) [8]","degree of fluorescent focus formation, TEL (SAM) [8]","degree of fluorescent focus formation, Tankyrase (SAM) [8]","degree of fluorescent focus formation, P62 (PB1) [8]",also measured
CN(C)CC[C@H](CSc1ccccc1)Nc1ccc(S(=O)(=O)NC(=O)c2ccc(N3CCN(Cc4ccccc4-c4ccc(Cl)cc4)CC3)cc2)cc1[N+](=O)[O-] [ABT-737],–,–,–,–,time when the total fluorescence luminance reached a half value [1]: approximately 35 minutes; time when the total fluorescence luminance reached a half value [2]: approximately 80 minutes
"N#CC(=C(/N)Sc1ccccc1N)/C(C#N)=C(\N)Sc1ccccc1N [U0126, reference compound]",–,–,–,–,"fluorescent foci after U0126 addition ([3]; same cells, 10 μM, added 14 minutes after EGF): the fluorescent foci were slowly decreased"
NCCc1c[nH]cn1 [histamine],–,–,–,–,"fluorescent foci at the later time point ([4]; 490 seconds after the cytoplasm calcium ion concentration was decreased): extinguished; fluorescent focus formation after ligand addition ([4]; HeLaS3 cells expressing Calmodulin-AG and M13peptide-p62(PB1), 90 seconds after addition): fluorescent focus formation was detected"
CC[C@H](C)C(=O)O[C@H]1CCC=C2C=C[C@H](C)[C@H](CC[C@@H]3C[C@@H](O)CC(=O)O3)[C@H]21 [mevastatin],–,–,–,–,interaction between Rac1 and RhoGDI [5]: reduced; localization of the interaction between Rac1 and PBD [6]: the interaction took place only in the nuclei
Azami-Green [AG],+++ (fluorescent foci were observed in 50% or more of the HeLaS3 cells),+++ (fluorescent foci were observed in 50% or more of the HeLaS3 cells),+++ (fluorescent foci were observed in 50% or more of the HeLaS3 cells),+++ (fluorescent foci were observed in 50% or more of the HeLaS3 cells),"degree of fluorescent focus formation, TFG (PB1) [7]: ++ (fluorescent foci were observed in 50% or less of the HeLaS3 cells)"
Kikume Green-Red [KikGR],+++ (fluorescent foci were observed in 50% or more of the HeLaS3 cells),+++ (fluorescent foci were observed in 50% or more of the HeLaS3 cells),+++ (fluorescent foci were observed in 50% or more of the HeLaS3 cells),+++ (fluorescent foci were observed in 50% or more of the HeLaS3 cells),"degree of fluorescent focus formation, TFG (PB1) [7]: ++ (fluorescent foci were observed in 50% or less of the HeLaS3 cells)"
Kusabira-Orange 1 [KO1],+++ (fluorescent foci were observed in 50% or more of the HeLaS3 cells),+++ (fluorescent foci were observed in 50% or more of the HeLaS3 cells),++ (fluorescent foci were observed in 50% or less of the HeLaS3 cells),+++ (fluorescent foci were observed in 50% or more of the HeLaS3 cells),"degree of fluorescent focus formation, TFG (PB1) [7]: +"
Midoriishi-Cyan1 [MiCy1],+++ (fluorescent foci were observed in 50% or more of the HeLaS3 cells),+++ (fluorescent foci were observed in 50% or more of the HeLaS3 cells),+,+++ (fluorescent foci were observed in 50% or more of the HeLaS3 cells),–
dimeric Keima-Red [dKeima],+++ (fluorescent foci were observed in 50% or more of the HeLaS3 cells),+++ (fluorescent foci were observed in 50% or more of the HeLaS3 cells),++ (fluorescent foci were observed in 50% or less of the HeLaS3 cells),+++ (fluorescent foci were observed in 50% or more of the HeLaS3 cells),–
"epidermal growth factor (NSDSECPLSHDGYCLHDGVCMYIEALDKYACNCVVGYIGERCQYRDLKWWELR; Epidermal growth factor; UniProt P01133 971-1023, looked up) [EGF]",–,–,–,–,"assembly formation after EGF addition [9]: the assembly formation was observed at the cell membranes; interaction between HRas and cRaf after EGF addition [10]: took place by adding EGF; fluorescent foci after EGF addition ([3]; 293 cells expressing p62(PB1)-ERK_substrate and AG-Pin1(ww)-NES, 50 ng/ml): fluorescent foci (assemblies) were significantly observed as time elapsed"
monomeric Keima-Red [mKeima],+++ (fluorescent foci were observed in 50% or more of the HeLaS3 cells),++ (fluorescent foci were observed in 50% or less of the HeLaS3 cells),+,+++ (fluorescent foci were observed in 50% or more of the HeLaS3 cells),–
monomeric Kusabira-Orange 1 [mKO1],+++ (fluorescent foci were observed in 50% or more of the HeLaS3 cells),+++ (fluorescent foci were observed in 50% or more of the HeLaS3 cells),+,+++ (fluorescent foci were observed in 50% or more of the HeLaS3 cells),–
